# Results as given in US20240083958A1, “G PROTEIN PEPTIDOMIMETICS” (VRIJE UNIVERSITEIT BRUSSEL, priority 2020, published 2024).
# Like-named read-outs stand apart in the source and are kept apart here. Bridge positions count the residues as written; N and C are the ends. Square brackets hold non-standard residues; d marks the D form. Primed or numbered codes have the meaning given here. Triazole bridges read from a SMILES are 1,4-linked. Peptide text beside a SMILES is read from it. ξ: configuration not given here. Pra″ = alkyne-bearing residue joined to Azk by a CuAAC triazole staple; Azk = residue with azidated side chain, clicked to Pra; Pra′ = residue with alkynyl side chain, clicked to Azk; Lys(N3) = [N-]=[N+]=NCCCC[C@H](N)C(=O)O; Cha = N[C@@H](CC1CCCCC1)C(=O)O; Ile(3ξ) = CCC(C)[C@H](N)C(=O)O; Pra = C#CC[C@H](N)C(=O)O
# Legend:
# [1] = molecular target: T1, human β2AR (Homo sapiens, UniProt P07550, N187E); assay: Radioligand binding assay (RLA) with human β2AR, 3H-dihydroalprenolol (DHA) as radioligand, isoproterenol (agonist) as cold competitor, in presence and absence of the peptidomimetic; parameters: key to Shift: ratio IC50 basal (no peptide) / IC50 with peptidomimetic
# T1 construct: made in house; host or cells: Sf9 insect cells (Bac-to-Bac baculovirus); membrane extracts
# Experimental: β2AR365N constructs were expressed in Sf9 insect cells, using the Bac-to-Bac® Baculovirus Expression System. The membrane extracts were prepared from cells that expressed β2AR. Subsequently, the cell pellet was resuspended in a buffer (1 ml buffer/2×1E7 cells) containing 75 mM Tris pH 7.4, 12.5 mM MgCl2, 1 mM EDTA, Leupeptin and PMSF as protease inhibitors. Afterwards the cells were vortexed and homogenized in ice using a small volume Ultraturrax (6×10 sec). The cells were then centrifuged for 15 min at 16000 rcf, in a pre-cooled centrifuge (4° C.) and resuspended in the previous buffer containing 10% sucrose. Finally, the membranes were again homogenized in ice with the small volume Ultraturrax (3×10 sec). The protein concentration in the membrane fragments was determined using a Pierce BCA Protein Assay Kit and the protein concentration was extrapolated from the Bovine Serum Albumine standard curve.
# To perform the radioligand competition binding assays, 96-well plates were used. For the assays on β2AR, the membrane extracts as well as the peptides were prepared in a binding buffer (75 mM Tris pH 7.4, 12.5 mM MgCl2, 1 mM EDTA, 0.2% BSA). The ligand (isoproterenol) and radioligand ([^3H]-dihydroalprenolol) were dissolved in ligand buffer (75 mM Tris pH 7.4, 12.5 mM MgCl2, 1 mM EDTA, 0.2% BSA and 0.1% ascorbic acid), at 1 mM and 2 nM, respectively. A ten-fold dilution series of the ligand was prepared to obtain a dose response curve. For each reaction 100 μl membrane extract, 50 μl ligand, 50 μl peptide or binding buffer containing 1% DMSO and 50 μl of radioligand was added to the V-bottom storage plate, with a total volume of 250 μl per well. Afterwards, the plates were incubated at room temperature for 2 h on a plate shaker (150 rpm). The samples were harvested into filter plates and washed with ice cold washing buffer (75 mM Tris pH 7,4) using the 96-well harvester. The plates were dried for 1 h at 50° C. and then sealed to allow the addition of 30 μl scintillation liquid to each well. Finally, the top of each plate was sealed and the plates were placed in a Wallac MICROBETA® Trilux scintillation counter and incubated for 30 min in the dark.
# After the Microbeta scintillation counter, the experimental data was further analyzed using Graphpad Prism 6.0. After normalization of the raw data, a nonlinear regression was used to fit the data in a one-site binding model, with the total binding set as 100% and the non-specific binding between 0 and 5%. The IC50 values, obtained from the competition curves, were used to determine the shift for each peptide, which is the ratio of IC50 of the agonist test compound on the basal conformation (e.g. IC50 β2AR with no peptidomimetic) versus the active conformation (e.g. IC50 β2AR+peptidomimetic) of the receptor. For certain peptide analogues, a biphasic binding curve was observed and therefore fitted by a two-site model (nonlinear regression), resulting in two IC50 values (IC50Hi and IC50Lo) and a FractionHi, the fraction of receptors in the active state.
# Synthesised peptidomimetics were evaluated using a radioligand binding assay (RLA) with a human β2AR, using ^3H-dihydroalprenolol (DHA) as the radioligand and increasing concentrations of isoproterenol (agonist) as cold competitor. In particular, the pharmacological stabilization of the receptor in the active conformation was evaluated by performing the radioligand displacement assay (RLA) in the presence and absence of the peptidomimetics. This validated assay quantifies the pharmacological stabilization of the receptor in the active conformation by comparing the affinities of an agonist for the basal versus the active GPCR conformer (Pardon et al. (2018) Angewandte Chemie International Edition 57, 5292-5295). During the assay, the binding affinity of an orthosteric agonist for the receptor, in particular isoproterenol for human β2AR, in presence and absence of the allosteric peptidomimetic was determined. […]
# [2] = molecular target: T2, human β2AR (human, UniProt P07550 2-365); assay: cell-based or functional assay
# [3] = molecular target: T2, human β2AR; assay: cell-based or functional assay; remark: listed apart in the source
# [4] = molecular target: T2, human β2AR; assay: cell-based or functional assay; remark: listed apart in the source
# [5] = molecular target: T2, human β2AR; assay: cell-based or functional assay; remark: listed apart in the source
# [6] = molecular target: T2, human β2AR; assay: cell-based or functional assay; remark: listed apart in the source
# [7] = molecular target: T2, human β2AR; assay: cell-based or functional assay; remark: listed apart in the source
# [8] = molecular target: T2, human β2AR; assay: cell-based or functional assay; remark: listed apart in the source
# [9] = Table 18a overview, averaged values of IC50 shift
# [10] = Table 18b overview, averaged values of IC50 shift
molecule,measurement,setting,value
"CCC(C)[C@@H]1NC(=O)[C@@H](NC(=O)[C@H](CC(=O)O)NC(=O)[C@H](CCCNC(=N)N)NC(=O)[C@H](CS)NC(=O)[C@H](CC(=O)O)NC(=O)[C@H](CC(N)=O)NC(=O)[C@H](Cc2ccccc2)NC(C)=O)CCC(=O)NCCCC[C@@H](C(=O)N[C@@H](Cc2c[nH]cn2)C(=O)N[C@@H](CC(C)C)C(=O)N[C@@H](CCCNC(=N)N)C(=O)N[C@@H](CCC(N)=O)C(=O)N[C@@H](Cc2ccc(O)cc2)C(=O)N[C@@H](CCC(=O)O)C(=O)N[C@@H](CC(C)C)C(=O)N[C@@H](CC(C)C)C(=O)O)NC(=O)[C@H](CCCNC(=N)N)NC(=O)[C@H](CCC(N)=O)NC1=O (stereo partly drawn) [compound 5, Ac-FNDCRD[EIQRK]HLRQYELL-OH] (HELM PEPTIDE1{[ac].F.N.D.C.R.D.E.[CCC(C)[C@H](N[*:1])C(=O)[*:2]].Q.R.K.H.L.R.Q.Y.E.L.L}$PEPTIDE1,PEPTIDE1,8:R3-12:R3$$$V2.0)",Shift,"[1]; Table 3, ratio IC50 β2AR alone / IC50 β2AR + peptidomimetic",4
same,Shift,[1]; [9],4
Ac-RDIIQR[AzkHLRPra]YELL-OH (Ac-RDIIQR[Azk]HLR[Pra′]YELL-OH; triazole 7-11) [compound 19],Shift,[1]; [10],5
"CCC(C)[C@@H]1NC(=O)[C@@H](NC(=O)[C@H](CC(=O)O)NC(=O)[C@H](CCCNC(=N)N)NC(=O)[C@H](CS)NC(=O)[C@H](CC(=O)O)NC(=O)[C@H](CC(N)=O)NC(=O)[C@H](Cc2ccccc2)NC(C)=O)Cc2cn(nn2)CCCC[C@@H](C(=O)N[C@@H](Cc2c[nH]cn2)C(=O)N[C@@H](CC(C)C)C(=O)N[C@@H](CCCNC(=N)N)C(=O)N[C@@H](CCC(N)=O)C(=O)N[C@@H](Cc2ccc(O)cc2)C(=O)N[C@@H](CCC(=O)O)C(=O)N[C@@H](CC(C)C)C(=O)N[C@@H](CC(C)C)C(=O)O)NC(=O)[C@H](CCCNC(=N)N)NC(=O)[C@H](CCC(N)=O)NC1=O (stereo partly drawn) [compound 11, Ac-FNDCRD[PraIQRAzk]HLRQYELL-OH] (Ac-FNDCRD[Pra][Ile(3ξ)]QR[Lys(N3)]HLRQYELL-OH; triazole 7-11)",Shift,"[1]; Table 5, ratio IC50 β2AR alone / IC50 β2AR + peptidomimetic",7
same,Shift,[1]; [9],7
"QRMHLRQYELL [compound 21, Ac-QRMHLRQYELL-OH]",Shift,"[1]; Table 1, ratio IC50 β2AR alone / IC50 β2AR + peptidomimetic",1
same,Shift,[1]; [10],1
Ac-FN[S5CRDS5]IQRMHLRQYELL-OH [compound 26],Shift,"[1]; Table 6, ratio IC50 β2AR alone / IC50 β2AR + peptidomimetic",2
same,Shift,[1]; [9],2
Ac-FNDCRDIIQRMHLRQYELA-OH [compound 79],"IC50 (nM) of isoproterenol, [3H]-DHA RLA, peptidomimetic present",[2],849 nM
same,Shift,[2],1
same,Shift (averaged),[3],1
Ac-KKFN[Pra]CRD[Lys(N3)]IQRMHLRQYE[Cha]L-OH (triazole 5-9) [compound 74],Fraction HI (%),[4],89%
same,"IC50 (nM) of isoproterenol, [3H]-DHA RLA, peptidomimetic present",[4],4.7 nM
same,Shift,[4],350
same,Shift (averaged),[3],350
Ac-KKKFN[Pra″]CRD[Lys(N3)]IQRMHLRQYEFL-OH (triazole 6-10) [compound 62],Fraction HI (%),[5],91%
same,"IC50 (nM) of isoproterenol, [3H]-DHA RLA, peptidomimetic present",[5],17.1 nM
same,Shift,[5],93
same,Shift (averaged),[3],87
Ac-FNDCRDIIQRMHLRQYALL-OH [compound 77],"IC50 (nM) of isoproterenol, [3H]-DHA RLA, peptidomimetic present",[2],175 nM
same,Shift,[2],5
same,Shift (averaged),[3],5
Ac-FNDCRDIIQRMHLRQYEFL-OH [compound 68],Fraction HI (%),[5],62%
same,"IC50 (nM) of isoproterenol, [3H]-DHA RLA, peptidomimetic present",[5],54.6 nM
same,Shift,[5],29
same,Shift (averaged),[3],35
Ac-KFN[Pra′]CRD[Azk]IQRMHLRQYE[Cha]L-OH (triazole 4-8) [compound 50],Fraction HI (%),[4],86%
same,"IC50 (nM) of isoproterenol, [3H]-DHA RLA, peptidomimetic present",[4],2.6 nM
same,Shift,[4],616
same,Shift (averaged),[3],373
Ac-FNDCRDIIQRMHLRQAELL-OH [compound 78],"IC50 (nM) of isoproterenol, [3H]-DHA RLA, peptidomimetic present",[2],616 nM
same,Shift,[2],1
same,Shift (averaged),[3],1
Ac-KFN[Pra′]CRD[Azk]IQRMHLRQYELL-OH (triazole 4-8) [compound 41],"IC50 (nM) of isoproterenol, [3H]-DHA RLA, peptidomimetic present",[6],26 nM
same,Shift,[6],44
same,Shift (averaged),[3],51
Ac-FNDCRDIIQRMHLRQYEWL-OH [compound 69],Fraction HI (%),[5],51%
same,"IC50 (nM) of isoproterenol, [3H]-DHA RLA, peptidomimetic present",[5],28.9 nM
same,Shift,[5],55
same,Shift (averaged),[3],27
Ac-FN[Pra′]CRD[Azk]IQRMHLRQYELL-OH [compound 22],Shift (averaged),[7],9
FNDCRDIIQRMHLRQXELL (HELM PEPTIDE1{[ac].F.N.D.C.R.D.I.I.Q.R.M.H.L.R.Q.[Cha].E.L.L}$$$$V2.0; SMILES CC[C@H](C)[C@H](NC(=O)[C@H](CC(=O)O)NC(=O)[C@H](CCCNC(=N)N)NC(=O)[C@H](CS)NC(=O)[C@H](CC(=O)O)NC(=O)[C@H](CC(N)=O)NC(=O)[C@H](Cc1ccccc1)NC(C)=O)C(=O)N[C@H](C(=O)N[C@@H](CCC(N)=O)C(=O)N[C@@H](CCCNC(=N)N)C(=O)N[C@@H](CCSC)C(=O)N[C@@H](Cc1c[nH]cn1)C(=O)N[C@@H](CC(C)C)C(=O)N[C@@H](CCCNC(=N)N)C(=O)N[C@@H](CCC(N)=O)C(=O)N[C@@H](CC1CCCCC1)C(=O)N[C@@H](CCC(=O)O)C(=O)N[C@@H](CC(C)C)C(=O)N[C@@H](CC(C)C)C(=O)O)[C@@H](C)CC) [compound 82],"IC50 (nM) of isoproterenol, [3H]-DHA RLA, peptidomimetic present",[8],25.6 nM
same,Shift,[8],32
same,Shift (averaged),[3],32
Ac-RFN[Pra′]CRD[Azk]IQRMHLRQYELL-OH (triazole 4-8) [compound 40],"IC50 (nM) of isoproterenol, [3H]-DHA RLA, peptidomimetic present",[6],31.3 nM
same,Shift,[6],37
same,Shift (averaged),[3],37
Ac-FNDCRDIIQRMHLRQYEAL-OH [compound 76],"IC50 (nM) of isoproterenol, [3H]-DHA RLA, peptidomimetic present",[2],1070 nM
same,Shift,[2],1
same,Shift (averaged),[3],1
